Numbered stars: 1 amine (or outer) side, 2 acyl side, 3 side chain; on linkers, the order of the positions; unused ones are H or OH. Square brackets hold non-standard residues; d marks the D form. Side chains are listed from the residue outwards. Ends that are not written are not given here. γGlu = O=C(O)[C@H](CCC(=O)[*:2])N[*:1]; x53 = not defined here; Aib = CC(C)(N)C(=O)O
Legend:
human GLP-1 receptor = human GLP-1 receptor (human, UniProt P43220 24-463); assay: cell-based or functional assay
human glucagon receptor = human glucagon receptor (human, UniProt P47871 26-477); assay: cell-based or functional assay
Sequence of human glucagon receptor (P47871 26-477): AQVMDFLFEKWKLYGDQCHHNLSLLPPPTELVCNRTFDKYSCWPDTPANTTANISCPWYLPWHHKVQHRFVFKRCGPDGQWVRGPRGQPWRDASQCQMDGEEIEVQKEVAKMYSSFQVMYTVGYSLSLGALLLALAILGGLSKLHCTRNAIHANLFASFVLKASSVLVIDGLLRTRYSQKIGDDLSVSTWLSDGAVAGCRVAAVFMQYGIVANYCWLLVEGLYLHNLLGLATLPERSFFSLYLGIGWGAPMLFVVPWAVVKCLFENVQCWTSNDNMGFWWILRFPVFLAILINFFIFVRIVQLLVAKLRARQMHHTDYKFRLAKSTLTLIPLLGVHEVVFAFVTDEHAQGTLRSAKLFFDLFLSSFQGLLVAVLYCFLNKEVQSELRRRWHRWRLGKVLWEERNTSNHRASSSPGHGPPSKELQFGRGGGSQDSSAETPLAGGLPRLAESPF

## HAEGTFTSDVSSYLEGQAAKEIAWLVKGR-NH2 [GLP-1(7-36)-amide]
Human GLP-1 receptor
  EC50 hGLP-1R (cAMP): 0.7 pM

## HXQGTFTSDLSKQKESRAAQDFIEWLKAGGPSSGAPPPS (dSer at 2; K(γE-x70) at 14; C-terminal NH2) [SEQ ID NO: 51]
Human GLP-1 receptor
  EC50 hGLP-1R (cAMP): 2.7 pM
Human glucagon receptor
  EC50 hGlucagon-R (cAMP): 3 pM

## HXQGTFTSDLSKQKESKAAQDFIEWLKAGGPSSGAPPPS (dSer at 2; K(GABA-x53) at 14; C-terminal NH2) [SEQ ID NO: 7]
Human GLP-1 receptor
  EC50 hGLP-1R (cAMP): 3.5 pM
Human glucagon receptor
  EC50 hGlucagon-R (cAMP): 20.7 pM

## HXQGTFTSDLSKQKESRAAQDFIEWLKAGGPSSGAPPPS (dSer at 2; K(γE-x82) at 14; C-terminal NH2) [SEQ ID NO: 64]
Human GLP-1 receptor
  EC50 hGLP-1R (cAMP): 3.1 pM
Human glucagon receptor
  EC50 hGlucagon-R (cAMP): 6.9 pM

## HXQGTFTSDLSKQKESRRAQDFIEWLKKGGPSSGAPPPS (dSer at 2; K(γE-x53) at 14; C-terminal NH2) [SEQ ID NO: 85]
Human GLP-1 receptor
  EC50 hGLP-1R (cAMP): 8.1 pM
Human glucagon receptor
  EC50 hGlucagon-R (cAMP): 10.4 pM

## HXQGTFTSDLSKQKESRAAQDFIEWLKAGGPSSGAPPPS (dSer at 2; K(γE-x74) at 14; C-terminal NH2) [SEQ ID NO: 55]
Human GLP-1 receptor
  EC50 hGLP-1R (cAMP): 5.4 pM
Human glucagon receptor
  EC50 hGlucagon-R (cAMP): 15.8 pM

## HXQGTFTSDLSKQKESRRAXDFIEWLKAGGPSSGAPPPS (dSer at 2; K(x53) at 14; Aib at 20; C-terminal NH2) [SEQ ID NO: 76]
Human GLP-1 receptor
  EC50 hGLP-1R (cAMP): 44.9 pM
Human glucagon receptor
  EC50 hGlucagon-R (cAMP): 162 pM

## HXQGTFTSDLSKQKESRAAQDFIEWLKAGGPSSGAPPPS (dSer at 2; K(GABA-x74) at 14; C-terminal NH2) [SEQ ID NO: 56]
Human GLP-1 receptor
  EC50 hGLP-1R (cAMP): 4.5 pM
Human glucagon receptor
  EC50 hGlucagon-R (cAMP): 29.3 pM

## HXQGTFTSDLSKQKESRAAQDFIEWLKAGGPSSGAPPPS (dSer at 2; K(γE-γE-x70) at 14; C-terminal NH2) [SEQ ID NO: 52]
Human GLP-1 receptor
  EC50 hGLP-1R (cAMP): 1.9 pM
Human glucagon receptor
  EC50 hGlucagon-R (cAMP): 2 pM

## HXQGTFTSDLSKQKESRAAQDFIEWLKAGGPSSGAPPPS (dSer at 2; K(γE-x70) at 14; C-terminal NH2) [SEQ ID NO: 65]
Human GLP-1 receptor
  EC50 hGLP-1R (cAMP): 5 pM
Human glucagon receptor
  EC50 hGlucagon-R (cAMP): 5.6 pM

## HXQGTFTSDLSKQKESRAAQDFIEWLKAGGPSSGAPPPS (dSer at 2; K(γE-x60) at 14; C-terminal NH2) [SEQ ID NO: 57]
Human GLP-1 receptor
  EC50 hGLP-1R (cAMP): 45 pM
Human glucagon receptor
  EC50 hGlucagon-R (cAMP): 8 pM

## HXQGTFTSDLSKQKESRAAQLFIEWLKAGGPSSGAPPPS (dSer at 2; K(γE-x53) at 14; C-terminal NH2) [SEQ ID NO: 70]
Human GLP-1 receptor
  EC50 hGLP-1R (cAMP): 6.5 pM
Human glucagon receptor
  EC50 hGlucagon-R (cAMP): 40.9 pM

## HXQGTFTSDLSKQKESRAAQDFIEWLKAGGPSSGAPPPS (dSer at 2; K(γE-x76) at 14; C-terminal NH2) [SEQ ID NO: 59]
Human GLP-1 receptor
  EC50 hGLP-1R (cAMP): 7.9 pM
Human glucagon receptor
  EC50 hGlucagon-R (cAMP): 6.8 pM

## HXQGTFTSDLSKQKDSRRAQDFIEWLKDGGPSSGAPPPS (dSer at 2; K(γE-x53) at 14; C-terminal NH2) [SEQ ID NO: 80]
Human GLP-1 receptor
  EC50 hGLP-1R (cAMP): 5.8 pM
Human glucagon receptor
  EC50 hGlucagon-R (cAMP): 1 pM

## HXQGTFTSDLSKQKESRAAQDFIEWLKAGGPSSGAPPPS (dSer at 2; K(GABA-x70) at 14; C-terminal NH2) [SEQ ID NO: 53]
Human GLP-1 receptor
  EC50 hGLP-1R (cAMP): 5.4 pM
Human glucagon receptor
  EC50 hGlucagon-R (cAMP): 6.5 pM

## HXQGTFTSDLSKQXESRRAQDFIEWLKAGGPSSGAPPPS (dSer at 2; Dab(γE-x53) at 14; C-terminal NH2) [SEQ ID NO: 72]
Human GLP-1 receptor
  EC50 hGLP-1R (cAMP): 25.9 pM
Human glucagon receptor
  EC50 hGlucagon-R (cAMP): 386 pM

## HXQGTFTSDLSKQKESRAAQDFIEWLKAGGPSSGAPPPS (dSer at 2; K(γE-x75) at 14; C-terminal NH2) [SEQ ID NO: 9]
Human GLP-1 receptor
  EC50 hGLP-1R (cAMP): 2.2 pM
Human glucagon receptor
  EC50 hGlucagon-R (cAMP): 4.1 pM

## HXQGTFTSDLSKQKESRRAQDFIEWLKEGGPSSGRPPPS (dSer at 2; K(γE-x53) at 14; C-terminal NH2) [SEQ ID NO: 82]
Human GLP-1 receptor
  EC50 hGLP-1R (cAMP): 11.7 pM
Human glucagon receptor
  EC50 hGlucagon-R (cAMP): 4.7 pM

## HXQGTFTSDLSKQKESRAAQDFIEWLKAGGPSSGAPPPS (dSer at 2; K(γE-x81) at 14; C-terminal NH2) [SEQ ID NO: 63]
Human GLP-1 receptor
  EC50 hGLP-1R (cAMP): 4.9 pM
Human glucagon receptor
  EC50 hGlucagon-R (cAMP): 8.4 pM

## HXHGTFTSDLSKQKESRRAQDFIEWLKAGGPSSGAPPPS (dSer at 2; K(γE-x53) at 14; C-terminal NH2) [SEQ ID NO: 73]
Human GLP-1 receptor
  EC50 hGLP-1R (cAMP): 4.1 pM
Human glucagon receptor
  EC50 hGlucagon-R (cAMP): 1.7 pM

## HXQGTFTSDLSKQKESRAAQDFIEWLKAGGPSSGAPPPS (dSer at 2; K(γE-x79) at 14; C-terminal NH2) [SEQ ID NO: 61]
Human GLP-1 receptor
  EC50 hGLP-1R (cAMP): 5.3 pM
Human glucagon receptor
  EC50 hGlucagon-R (cAMP): 16 pM

## HXQGTFTSDLSKQKESRAAQDFIEWLKAGGPSSGAPPPS (dSer at 2; K(x53) at 14; C-terminal NH2) [SEQ ID NO: 66]
Human GLP-1 receptor
  EC50 hGLP-1R (cAMP): 8.4 pM
Human glucagon receptor
  EC50 hGlucagon-R (cAMP): 113 pM

## HXQGTFTSDLSKQKESRRAQLFIEWLKAGGPSSGAPPPS (dSer at 2; K(x53) at 14; C-terminal NH2) [SEQ ID NO: 69]
Human GLP-1 receptor
  EC50 hGLP-1R (cAMP): 44.8 pM
Human glucagon receptor
  EC50 hGlucagon-R (cAMP): 52.4 pM

## HXQGTFTSDLSKQKESRAAQDFIEWLKAGGPSSGAPPPS (dSer at 2; K(γE-x80) at 14; C-terminal NH2) [SEQ ID NO: 62]
Human GLP-1 receptor
  EC50 hGLP-1R (cAMP): 3.9 pM
Human glucagon receptor
  EC50 hGlucagon-R (cAMP): 10.6 pM

## HXQGTFTSDLSKQKDSRRAQDFIEWLKDGGPSSGAPPPS (dSer at 2; K(x53) at 14; C-terminal NH2) [SEQ ID NO: 81]
Human GLP-1 receptor
  EC50 hGLP-1R (cAMP): 48 pM
Human glucagon receptor
  EC50 hGlucagon-R (cAMP): 7.1 pM

## HXQGTFTSDLSKQKESRAAQDFIEWLKAGGPSSGAPPPS (dSer at 2; K(γE-x77) at 14; C-terminal NH2) [SEQ ID NO: 60]
Human GLP-1 receptor
  EC50 hGLP-1R (cAMP): 38.4 pM
Human glucagon receptor
  EC50 hGlucagon-R (cAMP): 19.3 pM

## HXQGTFTSDLSKQKESRRAQDFIEWLKEGGPSSGRPPPS (dSer at 2; K(x53) at 14; C-terminal NH2) [SEQ ID NO: 83]
Human GLP-1 receptor
  EC50 hGLP-1R (cAMP): 53.9 pM
Human glucagon receptor
  EC50 hGlucagon-R (cAMP): 41.3 pM

## HXQGTFTSDLSKQKESRAAQDFIEWLKAGGPSSGAPPPS (dSer at 2; K(βA-βA-x70) at 14; C-terminal NH2) [SEQ ID NO: 54]
Human GLP-1 receptor
  EC50 hGLP-1R (cAMP): 4.8 pM
Human glucagon receptor
  EC50 hGlucagon-R (cAMP): 4 pM

## HXQGTFTSDLSKQKDSRRAXDFIEWLKAGGPSSGAPPPS (dSer at 2; K(γE-x53) at 14; Aib at 20; C-terminal NH2) [SEQ ID NO: 67]
Human GLP-1 receptor
  EC50 hGLP-1R (cAMP): 15.7 pM
Human glucagon receptor
  EC50 hGlucagon-R (cAMP): 3 pM

## HXQGTFTSDLSKQXESRRAQDFIEWLKAGGPSSGAPPPS (dSer at 2; Orn(γE-x53) at 14; C-terminal NH2) [SEQ ID NO: 71]
Human GLP-1 receptor
  EC50 hGLP-1R (cAMP): 20.5 pM
Human glucagon receptor
  EC50 hGlucagon-R (cAMP): 5.6 pM

## HXQGTFTSDLSKQKESRRAQDFIEWLKXGGPSSGAPPPS (dSer at 2; K(γE-x53) at 14; Aib at 28; C-terminal NH2) [SEQ ID NO: 79]
Human GLP-1 receptor
  EC50 hGLP-1R (cAMP): 23.3 pM
Human glucagon receptor
  EC50 hGlucagon-R (cAMP): 7.5 pM

## HXQGTFTSDLSKQKESRRAQLFIEWLKAGGPSSGAPPPS (dSer at 2; K(γE-x53) at 14; C-terminal NH2) [SEQ ID NO: 68]
Human GLP-1 receptor
  EC50 hGLP-1R (cAMP): 7.9 pM
Human glucagon receptor
  EC50 hGlucagon-R (cAMP): 5.7 pM

## HXQGTFTSDLSKQKESRAAQDFIEWLKAGGPSSGAPPPS (dSer at 2; K(GABA-x60) at 14; C-terminal NH2) [SEQ ID NO: 58]
Human GLP-1 receptor
  EC50 hGLP-1R (cAMP): 45.6 pM
Human glucagon receptor
  EC50 hGlucagon-R (cAMP): 15.1 pM

## HXQGTFTSDLSKQKDSRRAQDFIEWLKNGGPSSGAPPPS (dSer at 2; K(γE-x70) at 14; C-terminal NH2) [SEQ ID NO: 8]
Human GLP-1 receptor
  EC50 hGLP-1R (cAMP): 6.3 pM
Human glucagon receptor
  EC50 hGlucagon-R (cAMP): 2.3 pM

## HXQGTFTSDLSKQKESRRAQLFIEWLKAGGPSSGAPPPSK (dSer at 2; K(γE-x53) at 14; K(γE-x53) at 40; C-terminal NH2) [SEQ ID NO: 6]
Human GLP-1 receptor
  EC50 hGLP-1R (cAMP): 141 pM
Human glucagon receptor
  EC50 hGlucagon-R (cAMP): 18.9 pM

## H[Aib]QGTFTSDLSKQK([γGlu-x53])ESRRAQDFIEWLKAGGPSSGAPPPS-NH2 (reading uncertain) [SEQ ID NO: 77]
Human GLP-1 receptor
  EC50 hGLP-1R (cAMP): 4.3 pM
Human glucagon receptor
  EC50 hGlucagon-R (cAMP): 11.9 pM

— patent publication US20180185450A1 (Sanofi, published 2018)
